Source: patent US20230287089A1 (FLAGSHIP PIONEERING INNOVATIONS VI, published 2023)
Residue numbers refer to the chain shown, from its start.

Tests used:
[1] = target: T1, SARS-CoV-2 receptor binding domain (RBD) antigen (SARS-CoV-2, UniProt P0DTC2 319-527)
[2] = target: T1, SARS-CoV-2 receptor binding domain …; test: yeast surface display, titration of biotinylated RBD, flow cytometry

B1: Reference (VH of Reference fused to a c-Myc epitope tag, displayed on yeast) (VHH)
VHH: QVQLQESGGGLVQAGGSLRLSCAASGRTFSEYAMGWFRQAPGKEREFVATISWSGGSTYYTDSVKGRFTISRDNAKNTVYLQMNSLKPDDTAVYYCAAAGLGTVVSEWDYDYDYWGQGTQVTVSS
In the case of B1, the “EC50 (read off the curve)” value [1] is reported as about 6 nM and the Kd [2] is reported as 6 nM.

B2: AB-1 (VH of AB-1 fused to a c-Myc epitope tag, displayed on yeast) (VHH)
VHH: B1 VHH with T103V, V105L
In the case of B2, the “EC50 (read off the curve)” value [1] is reported as about 5 nM and the Kd [2] is reported as 9.3 nM.

B3: AB-2 (VH of AB-2 fused to a c-Myc epitope tag, displayed on yeast) (VHH)
VHH: B1 VHH with W53Y, T103V, V104H
With B3 the “EC50 (read off the curve)” value [1] was about 6 nM and the Kd [2] was 6.6 nM.
